# Assay results published in patent US5691312A, “Pharmaceutical for subcutaneous or intramuscular administration containing polypeptides” (Behringwerke Aktiengesellschaft, priority 1989, dated 1997).
# Tests used:
# [1] = additive for sc or im administration of proteins; WO 86/06962 and EP-A-0,292,908; cited from earlier work
# [2] = Bioavailability and/or tolerability of polypeptides administered sc or im with added amino acid (general statements); assay type: in vivo, rats or rabbits; settings: amino acid additives, sc or im administration
# Description: (§1) Each ml of the thawed solutions from Example 1 was administered sc and im (femoral biceps) in animals (rats or rabbits). In the case of im administration, the total volume of 1 ml was divided between four types of injection.
# (§2) After 0, 15, 30, 60, 120, 180, 240 and 340 minutes (r-t-PA mutant) or 0, 30, 60, 120, 180, 240, 300, 360, 420 and 450 minutes (r-t-PA, hirudin, urokinase AT III, F XIII, von Willebrand, EPO, PP4), blood samples (+ citrate) were taken. The blood samples were then immediately centrifuged and the resulting citrate plasma was frozen at -20° C. until the determination. The plasma concentration of the test substance was measured as follows:
# (§3) The area under the curve (AUC) was then calculated. This value is an expression of the bioavailability and makes possible comparison between the different presentation forms.
# [3] = Hemorrhages at the administration site, hirudin; assay type: in vivo, rat
# Description: as §1
# (§4) Number of animals with hemorrhages
# [4] = Hemorrhages at the administration site, urokinase; assay type: in vivo, rabbit; settings: for Number of animals with hemorrhages: 0.05 M tris, 5 mg/kg
# Description: as §1, §4
# [5] = Bioavailability of t-PA in the rat (plasma concentration by ELISA, AUC); assay type: in vivo; settings: n=2, 3.3/8.2 mg/kg
# Description: Each ml of the thawed solutions from Example 1 was administered sc and im (femoral biceps) in animals (rats or rabbits). In the case of im administration, the total volume of 1 ml was divided between four types of injection. […]
# as §2
# r-t-PA ELISA (Biopool, Sweden)
# as §3
# I. Bioavailability of t-PA in the rat
# [6] = Death of animals after sc/im administration; assay type: in vivo; settings: buffer 5 (0.05 M tris, 0.1 M NaCl pH 7.5, 0.1% Tween 80, 50 mg/ml hydroxylamine), rat, 3.3/8.2 mg/kg
# Description: as §1
# [7] = presentation form according to the invention versus customary presentation forms
compound,measurement,setting,value
NO [hydroxylamine],tolerability,[1],limited tolerability
CN [methylamine],tolerability,[1],limited tolerability
"EPO: r-erythropoietin (EPO); 1 mg of EPO corresponds to 80,000 U of EPO antigen",influence on the bioavailability and/or improvement in the tolerability,[2],favorable influence
F XIII: F XIII (Fibrogammin) obtained from Behringwerke,influence on the bioavailability and/or improvement in the tolerability,[2],favorable influence
Hirudin,influence on the bioavailability and/or improvement in the tolerability,[2],favorable influence
same,Number of animals with hemorrhages,"[3]; 0.05 M tris, 0.1 M NaCl, im, 10 mg/kg",3/3
same,animal died as a result of the hemorrhages,"[3]; 0.05 M tris, 0.1 M NaCl, im, 10 mg/kg, of 3 animals",1 animal
same,Number of animals with hemorrhages,"[3]; 0.05 M tris, 0.1 M NaCl, sc, 10 mg/kg",2/3
same,Number of animals with hemorrhages,"[3]; 0.2 M arginine, 0.2 M lysine pH 7.5, im, 10 mg/kg",0/3
same,Number of animals with hemorrhages,"[3]; 0.2 M arginine, 0.2 M lysine pH 7.5, sc, 10 mg/kg",0/3
same,hemorrhages at the administration site on sc and im administration,[3]; [7],distinctly less
"PP4: PP4 (placenta protein 4) prepared by the process of EP 0,123,307",influence on the bioavailability and/or improvement in the tolerability,[2],favorable influence
Urokinase,influence on the bioavailability and/or improvement in the tolerability,[2],favorable influence
same,Number of animals with hemorrhages,"[4]; 0.1 M NaCl pH 7.5, im",2/3
same,Number of animals with hemorrhages,"[4]; 0.1 M NaCl pH 7.5, sc",2/3
same,hemorrhages at the administration site on sc and im administration,[4]; [7],distinctly less
antithrombin III,influence on the bioavailability and/or improvement in the tolerability,[2],favorable influence
t-PA: r-t-PA (Actilyse) purchased from Boehringer Ingelheim; tissue plasminogen activator,AUC + Variation (%),"[5]; buffer 1 (0.05 M tris, 0.1 M NaCl), im",358 ± 10%
same,AUC + Variation (%),"[5]; buffer 1 (0.05 M tris, 0.1 M NaCl), sc",36 ± 13%
same,AUC + Variation (%),"[5]; buffer 2 (idem buffer 1, pH 4.5), im",386 ± 2%
same,AUC + Variation (%),"[5]; buffer 2 (idem buffer 1, pH 4.5), sc",53 ± 14%
same,AUC + Variation (%),"[5]; buffer 3 (0.2 M arginine, 0.2 M lysine pH 7.5), im",756 ± 2%
same,AUC + Variation (%),"[5]; buffer 3 (0.2 M arginine, 0.2 M lysine pH 7.5), sc",423 ± 3%
same,AUC + Variation (%),"[5]; buffer 4 (0.2 M arginine, 0.2 M lysine pH 4.5), im",669 ± 17%
same,AUC + Variation (%),"[5]; buffer 4 (0.2 M arginine, 0.2 M lysine pH 4.5), sc",382 ± 11%
same,AUC + Variation (%),"[5]; buffer 7 (0.05 M tris, 0.1 M NaCl pH 7.5, 0.1% Tween 80, 3% dimethyl sulfoxide), im",184 ± 18%
same,AUC + Variation (%),"[5]; buffer 7 (0.05 M tris, 0.1 M NaCl pH 7.5, 0.1% Tween 80, 3% dimethyl sulfoxide), sc",87 ± 12%
same,AUC + Variation (%),"[5]; buffer 8 (0.2 M arginine pH 7.5), im",600 ± 4%
same,AUC + Variation (%),"[5]; buffer 8 (0.2 M arginine pH 7.5), sc",320 ± 2%
same,AUC + Variation (%),"[5]; buffer 9 (0.2 M lysine pH 7.5), im",610 ± 10%
same,AUC + Variation (%),"[5]; buffer 9 (0.2 M lysine pH 7.5), sc",290 ± 11%
same,influence on the bioavailability and/or improvement in the tolerability,[2],favorable influence
same,animals died,[6]; im,all animals died
same,animals died,[6]; sc,all animals died
"von Willebrand factor: prepared by the process of DE 3,904,354 (1 mg of vW corresponds to 100 U of vW antigen)",influence on the bioavailability and/or improvement in the tolerability,[2],favorable influence
